This assay deals with T1, FZD3 (human (endogenous in hESC-derived EPs)) (UniProt Q9NPG1).
T1 sequence: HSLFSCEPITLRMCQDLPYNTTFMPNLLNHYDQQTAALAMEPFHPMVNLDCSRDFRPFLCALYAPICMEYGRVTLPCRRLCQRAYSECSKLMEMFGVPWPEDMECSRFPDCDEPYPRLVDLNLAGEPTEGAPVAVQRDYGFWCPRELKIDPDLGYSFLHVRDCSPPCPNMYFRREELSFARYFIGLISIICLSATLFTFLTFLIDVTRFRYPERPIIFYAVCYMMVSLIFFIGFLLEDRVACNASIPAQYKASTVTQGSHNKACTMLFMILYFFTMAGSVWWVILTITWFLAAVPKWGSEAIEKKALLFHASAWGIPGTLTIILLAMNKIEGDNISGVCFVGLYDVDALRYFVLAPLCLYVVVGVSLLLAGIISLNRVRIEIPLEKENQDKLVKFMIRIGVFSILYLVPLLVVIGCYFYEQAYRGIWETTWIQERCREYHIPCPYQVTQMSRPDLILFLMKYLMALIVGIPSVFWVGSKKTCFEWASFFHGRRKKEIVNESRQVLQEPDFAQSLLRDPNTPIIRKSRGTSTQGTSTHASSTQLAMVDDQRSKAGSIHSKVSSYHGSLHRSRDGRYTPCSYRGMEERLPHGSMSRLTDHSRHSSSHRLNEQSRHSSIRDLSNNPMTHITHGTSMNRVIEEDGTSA

B1: WNT5A recombinant protein (ligand)
chain: IIGAQPLCSQLAGLSQGQKKLCHLYQDHMQYIGEGAKTGIKECQYQFRHRRWNCSTVDNTSVFGRVMQIGSRETAFTYAVSAAGVVNAMSRACREGELSTCGCSRAARPKDLPRDWLWGGCGDNIDYGYRFAKEFVDARERERIHAKGSYESARILMNLHNNEAGRRTVYNLADVACKCHGVSGSCSLKTCWLQLADFRKVGDALKEKYDSAAAMRLNSRGKLVQVNSRFNSPTTQDLVYIDPSPDYCVRNESTGSLGTQGRLCNKTSEGMDGCELMCCGRGYDQFKTVQTERCHCKFHWCCYVKCKKCTEIVDQFVCK
B1: the INS+ cell number (immunofluorescence, day 3) of hESC-derived EPs treated with WNT5A and FZD3-neutralizing antibodies, compared to WNT5A treated EPs was found to be 2.5 fold.

The values are drawn from PMC9005503.
